Broadly, the EC50 (read off the curve) is the concentration at which the effect is half-maximal. Higher therefore signals a need for much substance. The Kd is a measure of binding affinity in units of concentration. Low readings indicate a tighter complex, high ones a looser complex. As usually defined, the koff is a measure of how fast the partners let go of each other. Broadly, the kon is the second-order rate constant of association. Higher therefore signals fast association.

The text below walks through data of patent US20220056112A1 (YUROGEN BIOSYSTEMS, published 2022).

B1: rabbit monoclonal antibody 1G7 against the SARS-CoV-2 nucleocapsid protein (antibody, V domains shown)
VH: QQQVVESGGGLVKPGASLTLTCEASGFSFSSGYDMCWVRQAPGKGLEWIACIYPGSSGNTYYASWAKGRFTISKTSSTTVTLQMTSLTAADTATYFCARTYASSSGDYIPYFFNLWGPGTLVTVSS
VL: DIVMTQTPASVEAAVGGTVTIKCQASENIYSGLAWYQQKPGQPPKLLIYDASDLASGVPSRFKGSGSGTEYTLTISDLECADAATYYCQNYYYSSRGFNTFGGGTEVVVKG
B2: rabbit monoclonal antibody 5B4 against the SARS-CoV-2 nucleocapsid protein (antibody, V domains shown)
VH: QSLEESGGGLVKPGGTLTLTCTVSGLSLSTNAPNWVRQAPGKGLEWIGTIFIDDEDTYYASWAKGRFTISKTSSTTITLKMTSLTAADTATYFCARNSDLWDPGTLVVVSS
VL: AQVLTQTPSPVSAAVGGTVTINCQASQSVYNNNYLSWFQQKPGQPPKLLIYKASTLASGVSSRFKGSGSGTQFTLTISDVQCDDAATYFCLGSYDCRSANCIVFGGGTEVVVKG
B3: rabbit monoclonal antibody 11B12 against the SARS-CoV-2 nucleocapsid protein (antibody, V domains shown)
VH: QQQLEESGGGLVKPGGTLTLTCTVSGLSLSSNTLNWVRQAPGKGLEWIGTIFIDDEDTYYASWAKGRFTISKTSSTTITLKMTSLTAADTATYFCARSSDLWDPGTLVVVSS
VL: AQVLTQTPSSVSAAVGGTVTINCQASQSVYKNNYLSWFQQKPGQPPKLLIYQASKLASGVSSRFKGSGSGTQFTLTISDVQCDDAATYFCLGSYDCRSANCIVFGGGTEVVVKG
B4: rabbit monoclonal antibody 1F8 against the SARS-CoV-2 nucleocapsid protein (antibody, V domains shown)
VH: QEHLEESGGGLVKPGASLTLTCTASGFSLSNNYWICWVRQAPGKGLEWIACIYTGRDYTYYTSWAKGRFTISKTSSTTVTLQLNSLTAADTATYFCARNNTDYGDYWDLWGPGTLVTVSS
VL: AQVLTQTASPVSVAVGDTVTINCQASQSVYKNNYLAWYQLKPGQPPKLLIYWGTKLPSGVPSRFKGSGSGTHFTLTISDVQCDDAATYYCLGSYDCTIAECNVFGGGTEVVVEG
B5: rabbit monoclonal antibody 5B12 against the SARS-CoV-2 nucleocapsid protein (antibody, V domains shown)
VH: QSLEESGGDLVQPEGTLTLTCTASGFSFFYDYYMCWVRQAPGKGLEWIGCIYGASGDTYYASWAKGRFTISKTSSTTVTLRMTSLTAADTATYFCARDVDTGSGIDFELWGPGTLVTVSS
VL: AYDMTQTPASVEVAVGGTVTIKCQASQSIGSYLSWYQQKPGQPPKLLIYSTSTLASGVPSRFKGSGSGTQFTLTISGVECADAATYYCQQGDTNHNIDNIFGGGTEVVVEG
B6: rabbit monoclonal antibody 6H7 against the SARS-CoV-2 nucleocapsid protein (antibody, V domains shown)
VH: QQQLEESGGGLVQPGGSLTLSCKASGFNVNSDCYMCWVRQAPGKGLEWIGCIDTVSGSTYYATWAKGRFTISKTSSTTVTLQMTSLTAADTATYFCARDFLYNVNNAGDIMDLWGPGTLVTVSL
VL: AQVLTQTPSSVSAAVGGTVTINCQSSYNVYNNNYLAWYQQKPGQPPKLLIYTTSTLASGVPSRFSGSGSGTQFTLTISDLECDDAAIYYCQGYYRGPVNDFGGGTEVVVEG
B7: rabbit monoclonal antibody 3A7 against the SARS-CoV-2 nucleocapsid protein (antibody, V domains shown)
VH: QEQLEESGGGLVQPEGSLTLTCTASGFSLSDSAYMCWVRQAPGKGLEWIACIDAGVSGSTYYASWVNGRFTISKTSSTTVTLQMTSLTVADTATYFCARDFLYTPNNAGDIMDLWGPGTLVTVSL
VL: AQVLTQTPSSVSAAVGGTVTINCQSSHTVYSNNYLSWYQQKPGQPPKLLIYSASSLASGVPSRFKGSGSGTQFTLTISDLECDDAAIYYCHGYWRGPVNDFGGGTEVVVEG

For the first experiment, the target named is T1, nucleocapsid protein of SARS-CoV-2 (SARS-CoV-2, UniProt P0DTC9 1-419).
Take B1: the “EC50 (read off the curve)” value was around 10 ng/mL.

The next experiment has as its target T1, nucleocapsid protein of SARS-CoV-2. The source holds these as a separate data set.
Molecule B1 displayed a Kd of 8.14 nM, a koff of 9.87e-05 s⁻¹ and a kon of 12100 M⁻¹ s⁻¹.
Turning to B2, the Kd amounted to 0.717 nM, the koff worked out at 0.000261 s⁻¹ and the association rate constant (kon) was determined as 364000 M⁻¹ s⁻¹.
On the same counts, the results for B3 are 0.0565 nM, 2.63e-05 s⁻¹ and 465000 M⁻¹ s⁻¹.
On the same counts, the results for B4 are 2.29 nM, 0.000206 s⁻¹ and 90200 M⁻¹ s⁻¹.
The molecule B5 displayed a Kd of 1.89 nM, a koff of 8.29e-05 s⁻¹ and a kon of 44000 M⁻¹ s⁻¹.
On the same counts, the results for B6 are 0.674 nM, 0.000238 s⁻¹ and 354000 M⁻¹ s⁻¹.
For B7, in that order: 1.22 nM, 0.000272 s⁻¹ and 224000 M⁻¹ s⁻¹.
